Measured values taken from patent US20050147687A1, “Methods for fabrication, uses and compositions of small spherical particles of AAT prepared by controlled phase separation” (priority 2003, published 2005).

Target: porcine pancreatic elastase (PPE) (Sus scrofa, UniProt P00772)
Experiment: Inhibition of porcine pancreatic elastase by rAAT (specific activity)
Format: biochemical
Experimental: To determine the specific activity, the rAAT small spherical particles were dissolved in 0.2M Tris-HCl pH 8.0 at room temperature. The resulting solution was analyzed by an assay which measures the capacity of rAAT to inhibit the ability of porcine pancreatic elastase (PPE) to hydrolyze synthetic peptides that contain a p-nitroanilide group at their C-terminus. The same solution of rAAT small spherical particles was then assayed for protein concentration using the Bicinchoninic Acid (BCA) assay. A control rAAT starting material solution was also analyzed in both assays. Because the activity assay was developed to determine the activity based on a concentration of 1 mg/ml protein per sample, the activity value was corrected based on the actual protein concentration as determined by BCA, giving the specific activity value: [formula]

porcine pancreatic elastase (PPE), sequence (P00772 27-266): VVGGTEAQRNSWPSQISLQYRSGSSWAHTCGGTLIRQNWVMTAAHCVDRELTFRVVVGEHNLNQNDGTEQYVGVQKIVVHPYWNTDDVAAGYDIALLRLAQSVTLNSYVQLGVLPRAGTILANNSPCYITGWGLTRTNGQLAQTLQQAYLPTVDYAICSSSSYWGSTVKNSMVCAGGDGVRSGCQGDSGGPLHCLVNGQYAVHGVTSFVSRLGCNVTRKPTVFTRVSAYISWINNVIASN

specific activity, inhibition of porcine pancreatic elastase (scale 100-300 mg (n = 12, column)): 64.34 ± 4.95 IU/mg | specific activity, inhibition of porcine pancreatic elastase (scale 200-300 mg (n = 8, vessel)): 65.87 ± 0.98 IU/mg
Substance: control rAAT starting material: control solution of recombinant alpha-1-antitrypsin starting material
